Experimental findings from patent publication US20040146949A1, “Methods and compounds for disruption of CD40R/CD40L signaling in the treatment of alzheimer's disease” (priority 2002, published 2004) are described below.

What all share (type): cell-based
For assay [1], the system named is N2a cells overexpressing human wild-type APP-695. In words: secreted Aβ ELISA in conditioned media of N2a cells over-expressing APP-695. The settings on record: for alterations in secretion of Aβ species: ligand controls for specificity, data not shown. The method, then:
(§1) FIGS. 9a-f: CD40L modulates APP processing in vivo and in vitro. Fig. a: Brain homogenates were prepared from 12-month-old TgAPPsw/CD40L-deficient, control IgG-treated PSAPP, and anti-CD40L antibody-treated PSAPP animals. Representative lanes are shown from each mouse group. […] Fig. d: Cell lysates were prepared from N2a cells overexpressing human wild-type APP-695 and treated with 2 μg/mL of heat-inactivated CD40L (control) or CD40L protein (CD40 ligation) for 24 hours. […] Fig. f: A-β1-40 and A-β1-42 peptides were analyzed in conditioned media from human wild-type APP-695 overexpressing N2a cells by ELISA (n=3 for each condition). Data are represented as percentage of Aβ peptide secreted 24 hours after CD40 ligation relative to heat-inactivated CD40L treatment. […] Similar results were obtained with antibody 6687 or Chemicon polyclonal APP C-terminal antibody (data not shown).
(§2) We also employed an N2a cell line that stably over-expresses the human wild-type APP-695 transgene (Thinakaran, G., et al., “Metabolism of the Swedish’ amyloid precursor protein variant in neuro2a (N2a) cells, Evidence that cleavage at the ‘beta-secretase’ site occurs in the golgi apparatus,” J. Biol. Chem. 271, 9390-9397 (1996)). […] This effect could be alleviated by co-treatment with anti-CD40L antibody, as we detected anti-CD40L antibody in brains of treated PSAPP mice. To determine whether an incrreased ratio of β-CTF to α-CTF after CD40L treatment might be associated with secretion of Aβ, we measured the latter in conditioned transfected N2a cell media by ELISA. […] To confirm the specificity of this effect, we treated these cells with other TNF ligand superfamily members TNF-α or Fas ligand the additional control ligands transforming growth factor-β1 or neurotrophin.
ELISA analysis (FIGS. 8-9). Mouse brains (Control, Tg APPsw, CD40L def., and Tg APPsw/CD40L def.) were isolated under sterile conditions on ice and placed in ice-cold lysis buffer (containing 20 mM Tris, pH 7.5, 150 mM NaCl, 1 mM EDTA, 1 mM EGTA, 1% v/v Triton X-100, 2.5 mM sodium pyrophosphate, 1 mM β-glycerolphosphate, 1 mM Na3VO4, 1 µg/mL leupeptin, and 1 mM PMSF). Brains were then sonicated on ice for approximately 3 minutes, let stand for 15 minutes at 4° C., and centrifuged at 15,000 rpm for 15 minutes. Total Aβ species were detected by acid extraction of brain homogenates in 5 M guanidine buffer (Johnson-Wood, K. et al., “Amyloid precursor protein processing and A beta42 deposition in a transgenic mouse model of Alzheimer disease,” Proc. Natl. Acad. Sci USA 94, 1550-1555 (1997)), followed by a 1:10 dilution in lysis buffer. Aβ1-40 and Aβ1-42 and total Aβ (estimated by summing Aβ1-40 and Aβ1-42 values) were quantified in these samples using the Aβ1-40 and Aβ1-42 enzyme-linked immunosorbent assay (ELISA) kits (BioSource, Camarillo, Calif., USA) in accordance with the manufacurer's instruction, except that standards were diluted such that the final concentration included 0.5 M guanidine buffer. Total protein was quantified in brain homogenates using the Bio-Rad protein assay (Bio-Rad, Richmond, Calif., USA); thus, ELISA values were reported as ng of Aβ1-x/wet g of brain. For in vitro analysis of Aβ levels, conditioned media from human APP-over-expressing N2a cells were collected and analyzed at a 1:1 dilution using the method described above, and values were rreported as percentage of Aβ1-x secreted relative to control. […]
On the technique in general: In an ELISA, binding on a coated surface is turned into a signal by an enzyme label.

The test system is the same in assay [2]. In words: APP CTFs by Western blot in N2a cells over-expressing APP-695. The settings on record: for alterations in APP CTFs: ligand controls for specificity, data not shown. How it is done:
as §1, §2
Western blot (FIGS. 8-9). Mouse brains or cultured cells were lysed in ice-cold lysis buffer as described above, and an aliquot corresponding to 50 μg of total protein was electrophoretically separated using 16.5% Tris-tricine gels (Bio-Rad). Electrophoresed proteins were then transferred to PVDF membranes (Bio-Rad), washed in dH20, and blocked for 1 hour at ambient temperature in Tris-buffered saline (TBS) containing 5% (w/v) of non-fat dry milk. After blocking membranes were hybridized for 1 hour at ambient temperature with various antibodies against the C-terminus of APP or the N-terminus of Aβ. […] Densitometric analysis was performed using the Fluor-S Multilmager™ with Quantity One™ software (Bio-Rad). […] Further β- and γ-secretase activities were quantified in Tg APPsw and Tg APPsw/CD40L def. mice using available kits based on secretase-specific peptides conjugated to fluorgenic reporter molecules (R&D Systems, Minneapolis, Minn., USA). […]
For orientation: In western blotting, separated proteins are transferred to a membrane and probed.

The subject of assay [3] is N2a cell line that stably overexpresses the human wild-type APP-751 transgene. Put plainly: α-CTF by Western blot in N2a cells overexpressing APP-751. The settings on record: CD40L treatment over time. The source says: We have recently identified CD40 on neurons and neuron-like cells (including the N2a neuroblastoma cell line), and have shown that neuronal CD40 is functional, being intimately involved in neuronal development, survival, and maturation (Tan et al., “CD40 is expressed and functional on neuronal cells,” EMBO J. (2002) 21:643-52). Given our in vivo findings, we wished to determine whether CD40L could directly act on neurons to modulate APP processing. An N2a cell line was established that stably overexpresses (by ˜3 fold) the human wild-type APP-751 transgene (Xia et al., “Enhanced production and oligomerizatio of the 42-residue amyloid beta-protein by Chinese hamster ovary cells stably expressing mutant presenilins,” J. Biol. Chem. (1997) 272:7977-82). […] To confirm whether this reduction in α-CTF might be associated with amyloidogenic processing of APP, we measured secreted Aβ in conditioned media. […] Thus CD40L is able to directly promote amyloidogenic APP processing in neurons or neuron-like cells. […] As the vast majority of cases of AD are associated with accumulation of Aβ from a normal APP sequence, the observation that the processing of normal APP can be pushed towards amyloidogenicity by CD40L is of interest. […]
Western blot. […] Densitometric analysis was perfromed using the Fluor-S Multilmager™ with Quantity One™ software (Bio-Rad). […]

Assay [4] has the same test system. In words: secreted Aβ in conditioned media of N2a cells overexpressing APP-751. The settings on record: CD40L treatment over time. The source says: We have recently identified CD40 on neurons and neuron-like cells (including the N2a neuroblastoma cell line), and have shown that neuronal CD40 is functional, being intimately involved in neuronal development, survival, and maturation (Tan et al., “CD40 is expressed and functional on neuronal cells,” EMBO J. (2002) 21:643-52). Given our in vivo findings, we wished to determine whether CD40L could directly act on neurons to modulate APP processing. […] To confirm whether this reduction in α-CTF might be associated with amyloidogenic processing of APP, we measured secreted Aβ in conditioned media. […]
ELISA analysis. […] Total Aβ species were detected by acid extraction of brain homogenates in 5 M guanidine buffer (Johnson-Wood et al., “Amyloid precursor protein processing and A beta42 deposition in a transgenic mouse model of Alzheimer disease,” Proc. Natl. Acad. Sci. USA (1997) 94:1550-55), followed by a 1:10 dilution in lysis buffer. Aβ1-40, Aβ1-42, and total Aβ (estimated by summing Aβ1-40 and Aβ1-42 values) were quantified in these samples using the Aβ1-40 and Aβ1-42 enzyme-linked immunosorbent assay (ELISA) kits (QCB) in accordance with the manufacturer's instruction, except that standards were diluted such that the final concentration included 0.5 M guanidine buffer. […]

Setting [5] is: 24 hour treatment, 2 μg/mL, relative to heat-inactivated CD40L.

Regarding “transforming growth factor-β1: additional control ligand [reference compound]”, in assay [1], the “alterations in secretion of Aβ species” value is “did not observe alterations”. Moreover, the “alterations in APP CTFs” value in assay [2] was “did not observe alterations”.
As to TNF-α [reference compound], the “alterations in secretion of Aβ species” value in assay [1] is “did not observe alterations”. In addition, the “alterations in APP CTFs” value in assay [2] is recorded as “did not observe alterations”.

B1: Fas ligand: other TNF ligand superfamily member used as ligand control (protein, UniProt P48023 130-281, looked up)
Tumor necrosis factor ligand …: QIGHPSPPPEKKELRKVAHLTGKSNSRSMPLEWEDTYGIVLLSGVKYKKGGLVINETGLYFVYSKVYFRGQSCNNLPLSHKVYMRNSKYPQDLVMMEGKMMSYCTTGQMWARSSYLGAVFNLTSADHLYVNVSELSLVNFEESQTFFGLYKL
Turning to B1, the “alterations in secretion of Aβ species” value in assay [1] is reported as “did not observe alterations”. In assay [2], the “alterations in APP CTFs” value is “did not observe alterations”.

B2: CD40L: CD40L protein (CD40 ligation) added to N2a cells at 2 μg/mL (protein, UniProt P29965 113-261, looked up)
CD40 ligand, soluble form: MQKGDQNPQIAAHVISEASSKTTSVLQWAEKGYYTMSNNLVTLENGKQLTVKRQGLYYIYAQVTFCSNREASSQAPFIASLCLKSPGRFERILLRAANTHSSAKPCGQQSIHLGGVFELQPGASVFVNVTDPSQVSHGTGFTSFGLLKL
Turning to B2, in assay [1] (setting [5]), the “increase in secreted Aβ1-40 levels” value is reported as around 85% and the “increase in secreted Aβ1-42 levels” value is recorded as around 50%. Also, in assay [2] (2 μg/mL, serum-free conditions, 24 hours, versus heat-inactivated CD40L), the “ratio of APP β-CTF to α-CTF” value is recorded as “increased ratio”. In addition, in assay [3], the “α-CTF by Western blot” value was “time-dependent decrease”. In assay [4], the “secreted Aβ1-40 levels in conditioned media” value is “time-dependent increase” and the “secreted Aβ1-42 levels in conditioned media” value was “time-dependent increase”.
